According to article PMC12261083, “Two DNA-binding One Zinc Finger transcription factors, MdCDOF3 and MdDOF3.6, accelerate leaf senescence by activating cytokinin oxidase MdCKX7 in response to sorbitol signaling in apple”:

B1: MdCKX7 promoter P4 probe (dsDNA)
DNA 1: GATACTATTCACTTTACCCTTTATTCTGTCCTTATC
DNA 2: GATAAGGACAGAATAAAGGGTAAAGTGAATAGTATC
B2: MdCKX7 promoter P4 mutant probe (dsDNA)
DNA 1: GATACTAAAAAAAAAAAAAAAAAAAAAATCCTTATC
DNA 2: GATAAGGATTTTTTTTTTTTTTTTTTTTTTAGTATC

What was measured:
MdDOF3.6 [1] = target: T1, MdDOF3.6 (Malus domestica, UniProt A0A498JFY8 1-358); test: EMSA; not stated (EMSA according to cited protocol; biotin-labelled probes, Beyotime kit); conditions: protein: recombinant; tags: His; label: biotin
T1 sequence: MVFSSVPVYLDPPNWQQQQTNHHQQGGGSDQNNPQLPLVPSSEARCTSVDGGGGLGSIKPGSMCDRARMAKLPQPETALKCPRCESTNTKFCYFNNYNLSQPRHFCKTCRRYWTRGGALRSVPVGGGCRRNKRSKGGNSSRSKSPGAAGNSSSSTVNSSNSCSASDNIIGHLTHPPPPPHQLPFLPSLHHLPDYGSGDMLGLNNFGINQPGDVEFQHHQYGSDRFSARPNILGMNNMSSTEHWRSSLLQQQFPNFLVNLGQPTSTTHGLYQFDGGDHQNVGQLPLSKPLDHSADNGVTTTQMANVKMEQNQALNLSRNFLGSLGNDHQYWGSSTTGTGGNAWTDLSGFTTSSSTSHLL

MdDOF3.6 [2] = target: T1, MdDOF3.6; test: EMSA; mutated probe; shift disappeared; not stated (EMSA according to cited protocol; biotin-labelled probes, Beyotime kit); conditions: protein: recombinant; tags: His

Binder | binding result (MdDOF3.6 [1]) | binding result (MdDOF3.6 [2])
B1 | binds | 
B2 |  | no binding
